Test results reported in the RNAGym collection of RNA variant scans (doi:10.1073/pnas.2313332121).

B1: TPR t1 (parent)
chain: GACCAAUCUGCCCUCAGAGCUCGAGAACAUCUUCGGAUGCAGAGGAGGCAGGCUUCGGUGGCGCGAUAGCGCCAACGUCCUCAACCUCCAAUGCAUCCCACCACAUGAUGAUGCCUGAAGAGCCUUGGUUUUUUG

Variants of: B1
Test: polymerase ribozyme fitness, log enrichment relative to wild type (log ratio); higher = more active; in vitro selection for triplet polymerase activity
How it was run: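 In triplicate, a single round of in vitro selection was run on each mutant library, PCR-built and transcribed, covering one subunit of a heterodimeric triplet polymerase ribozyme. Frozen incubation at −7 °C followed annealing with a biotinylated primer, partner subunit and triplets, and extended constructs were then gel-excised, streptavidin-captured and taken through RT-PCR. Fitness is the logarithm of genotype enrichment over wild-type enrichment, from inverse-variance-weighted replicate averages of Illumina-sequenced inputs and outputs. […] only genotypes with ≥10 input reads and ≥1 read per output were kept.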

| Variant | polymerase ribozyme fitness (log ratio) |
| --- | --- |
| GACCAAUCUGCCCUCAGAGCUCGAGAACAUCUUCGGAUGCAGAGGAGGCAGGAUUCGGUGGCGCGAUAGCGGCAACGUCCUCAACCUCCAAUGCAUCCCACCACAUGAUGAUGCCUGAAGAGCCUUGGUUUUUUG | 0.124 |
| GACCAAUCUGCCCUCAGAGCUCGAGAACAUCUUCGGAUGCAGAGGAGGCAGGAUUCGGUGGCGCGAUAGCGCCAACGUCCUCAACCUUCAAUGCAUCCCACCAUAUGAUGAUGCCUGAAGAGCCUUGGUUUUUUG | 0.665 |
| GACCAAUCUGCCCUCAGAGCUCGAGAACAUCUUCGGAUGCAGAGGAGGCAGGAUUUGAUGGCGCGAUAGCGCCAACGUCCUCAACCUCCAAUGCAUCCCACCACAUGAUGAUGCCUGAAGAGCCUUGGUUUUGUG | -0.438 |
| GACCAAUCUGCCCUCAGAGCUCGAGAACAUCUUCGGAUGCAGAGGAGGCAGGAUUAGGUGGCGCGAUAGCGCCAACGUCCUCAACCCCCAAUGCAUCCCACCACAUGAUGAUGCCUGAACAGCCUUGGUUUUUUG | 1.18 |
| GACCAAUCUGCCCUCAGAGCUCGAGAACAUCUUCGGAUGCAGAGGAGGCAGGAUUCGGUGGCGCGAUAGCGCCAACGUCCUUAACCUGCAAUGCAUCCCACCACAUGAUGAUGCCUGUAGAGCCUUGGUUUUUUG | -0.344 |
| GACCAAUCUGCCCUCAGAGCUCGAGAACAUCUUCGGAUGCAGAGGAGGCAGGAUUCGGUGGCGCGAUAGCGCCAACGUUCUCAACCUCCAAUGGAUCCCAACACAUGAUGAUGCCUGAAGAGCCUUGGUUUUUUG | -1.64 |
| GACCAAUCUGCCCUCAGAGCUCGAGAACAUCUUCGGAUGCAGAGGAGGCAGGAUUCGGUGGCGCGAUAGCGCCAACGUCCUCAACCUCCAAUGCAUCCCACCACAUGAUGAUGCCUGAAGAGCUUUGGGUUUUUG | -0.384 |
| GACCAAUCUGCCCUCAGAGCUCGAGAACAUCUUCGGAUGCAGAGGAGGCAGGAUUCGGUAGCGCGAUAGCGCCAACGUCCUCAACCUCCAAUGCAUCCCUCCACAUGAUGAUGCCUGAACAGGCUUGGUUUUUUG | -1.07 |
| GACCAAUCUGCCCUCAGAGCUCGAGAACAUCUUCGGAUGCAGAGGAGGCAGGAUUCCGUGGCGCGAUAGCGCCAACGACCUCAACCUCCAAUGCAUCCCACCACAUGAUGAAGCCUGAGGAGCCUUGGUUUUUUG | 2.05 |
| GACCAAUCUGCCCUCAGAGCUCGAGAACAUCUUCGGAUGCAGAGGAGGCAGGAUUCGGUGGCGCGAUAGCGCCAACGUCCUCAACCUUCAAUGCAUCCCACCACAGGAUGAUGCCUGAAGAGCCUUGGUUUUUUG | -1.18 |
| GACCAAUCUGCCCUCAGAGCUCGAGAACAUCUUCGGAUGCAGAGGAGGCAGGAUUCGGUGGCGCGAUAGCGCCAACGUCCUCAACCUCCAAUGCAUCCCACCACAUGAUGAUGACUGAAGAGCCUUGGUUUUUUG | -1.87 |
| GACCAAUCUGCCCUCAGAGCUCGAGAACAUCUUCGGAUGCAGAGGAGGCAGGAUUCGGUAGCGCGAUAGCGCCAACGUCCUCAACCUCCAAUGCAUCCCACCACAUGAUGAUGCCUGAAGAGCCUUGGUUUUUUG | -0.364 |
| GACCAAUCUGCCCUCAGAGCUCGAGAACAUCUUCGGAUGCAGAGGAGGCAGGAUUCGGUGGCGCGAUAGCGGCAACGUCCUCAACCUUCAAUGCAUCCCACCACAUGAUGAUGCCUGAAGAGGCUUGGUUUUUUG | 1.36 |
| GACCAAUCUGCCCUCAGAGCUCGAGAACAUCUUCGGAUGCAGAGGAGGCAGGAUUCGGUGGCGUGAUAGCGCCAACGCCCUCAACCUCCAAUGCAUCCCACCAAAUGAUGAUGCCUGAAGAGCCUUGGUUUUUUG | -0.646 |
| GACCAAUCUGCCCUCAGAGCUCGAGAACAUCUUCGGAUGCAGAGGAGGCAGGAUUCGGUGGCGCGAUAGCGCCAACGUACUCAACCUCCAAUGCAUCCCACCACAUGAUGAUGCCUGAAGAGCCUUGGUUUUUUG | -3.06 |
| GACCAAUCUGCCCUCAGAGCUCGAGAACAUCUUCGGAUGCAGAGGAGGCAGGAUUCGGUGGCGCGAUAGUGCCAACGUCCUCAACCUCCAAUGCAUCCCACCACAUGAUGAUGCAUGUAGAGCCUUGGUUUUUUG | -1.34 |
| GACCAAUCUGCCCUCAGAGCUCGAGAACAUCUUCGGAUGCAGAGGAGGCAGGAUUCGGUGGCGCGAUAGCGCCAACGUCCUCAACCUCCAAUGCAUCCCACCACAUGAUGAUGCCUGAAGAGGCUUGGUUUUUUG | 2.31 |
| GACCAAUCUGCCCUCAGAGCUCGAGAACAUCUUCGGAUGCAGAGGAGGCAGGAUUUGGUGGCGCGAUAGCGCCAACGUCCUCAACCUCCAAUGCAUCCCACCACACGAUGAUGCCUGAAGAGCCUUGGUUUUUUG | -0.479 |
| GACCAAUCUGCCCUCAGAGCUCGAGAACAUCUUCGGAUGCAGAGGAGGCAGGAUUCGGUGGGGCGAUAGCGCCAACGUCCUCAACCUCCAAUGCAUCCCACCACAUGGUGAUGCCUGAAGAGCCUUGGUUUUUUG | -3.91 |
| GACCAAUCUGCCCUCAGAGCUCGAGAACAUCUUCGGAUGCAGAGGAGGCAGGAUUCGGUGGCGCGAUAGCGCCAACGUCCUCAACCUCCAAUGCAUCCUACCACAUGAUGAUGCCUGAAGAGCCUUGGUUUUUUG | -4.03 |
| GACCAAUCUGCCCUCAGAGCUCGAGAACAUCUUCGGAUGCAGAGGAGGCAGGAUUCGGUGGCGCGAUAGUGCCAACGUCCUCAACCUCCAAUGCAUCCCACCACAUGAUGAUGCCUAAAGCGCCUUGGUUUUUUG | -1.08 |
